The text below walks through data of publication PMC5350102.

For orientation: Ki means a dissociation constant, usually derived from enzyme kinetics or from competition with a known ligand. A high value points to weaker binding. For orientation: Kd means a measure of binding affinity in units of concentration.

Read-outs that look alike come from different tables or passages of the source. Bounds are passed on as bounds.

The target in one assay is His-nNOS[1–155] (human) (UniProt P29475). Briefly: fluorescence polarisation; competition FP: 1 μM F-GDLV, 4 μM His-nNOS(1–155), increasing competitor; approximate Kc (dissociation constant of the competitor, affinity for the nNOS PDZ pocket) from the single-site competition formula. (In general: Fluorescence polarisation rises when a labelled molecule tumbles more slowly, as on binding a larger partner.)

The next assay concerns the target GST-nNOS[1–155] (human) (UniProt P29475). Briefly: pull-down; solid-phase no-wash binding assay: 5 μl beads bound to 1 μg GST-fused nNOS protein (or GST for background) rotated with His-TAT-NOS1AP peptides for 1 h at 4°C; unbound removed by centrifugation in filter plates, no wash; bound peptide quantified by fluorescent immunoblot; GST background subtracted; 1-site quadratic fit. (In general: In western blotting, separated proteins are transferred to a membrane and probed.)

Assay [1] deals with nNOS (UniProt P29475). Briefly: solid-phase no-wash assay. As to conditions: cited from earlier work.
The target in assay [2] is nNOS (UniProt P29475). To be noted: cited from earlier work.

On to “NOS1AP[400–503] F431A cleaved from GST (from UniProt O75052 400-503) (domain or fragment)”, for which the Ki with His-nNOS[1–155] (human) was above 10 µM.

The substance “His-TAT-NOS1AP[400–503] F431A, denatured (from UniProt O75052 400-503) (domain or fragment)” yielded a Kd with GST-nNOS[1–155] (human) of 100 µM.

As for “TAT-NOS1AP 400-506 (from UniProt O75052)”, the Kd in the assay with nNOS [1] is 0.75 µM.

NOS1AP-9C: the Kd with nNOS [2] was above 600 µM.
